Experimental data as given in article PMC5024299.

System: Pho4 (Saccharomyces cerevisiae)
Experiment: SELMAP (microfluidic SELEX-seq)
Conditions: last round; On-chip SELMAP: 71-bp dsDNA library (20 ul, 50 uM) flowed 20 min over immobilised TF, MITOMI trapping, DNase 200 U/mL, PBS wash; binding buffer, pH and …

Substance: Pho4 consensus 6-mer CACGTG in 12-mer library
- binding signal (frequency ratio score): 220
